The target in experiment [1] is T1, Fc-tagged SARS-CoV-2 receptor-binding domain (RBD), wild type (SARS-CoV-2, Wuhan-Hu-1 (QHD43416.1), UniProt P0DTC2).
T1 construct: also called SARS-CoV-2 RBD; WT RBD; not shown: Fc, C-terminal, kept
Put plainly: BLI; Fc-tagged RBD (20 ug/ml) loaded on anti-hIgG Fc Capture (AHC) biosensors, Fab in solution at four to five concentrations; Octet Red96e, room temperature, 1x kinetics buffer (1x PBS pH 7.4, 0.01% w/v BSA, 0.002% v/v Tween 20); 1:1 binding model. As to conditions: both partners purified.

In experiment [2] the target is T2, Fc-tagged SARS-CoV-2 spike receptor-binding domain (RBD) (SARS-CoV-2, Wuhan-Hu-1 (QHD43416.1), UniProt P0DTC2).
T2 construct: also called SARS-CoV-2 RBD; Fc-tagged RBD; source: Expi293F, transiently transfected, purified (KanCapA protein A resin); not shown: Fc (after an SSSSG linker), C-terminal, kept
Put plainly: BLI; Fc-tagged RBD (20 ug/ml) loaded on anti-hIgG Fc Capture (AHC) biosensors, Fab in solution; room temperature; 1x PBS pH 7.4, 0.01% BSA, 0.002% Tween 20; 1:1 binding model. Particulars: both partners purified.

Numbering of substitutions follows the chain as printed. Names may count otherwise.

B1: COV107-23 F58Y Fab (Fab, V domains shown)
VH: EVQLVESGGGLIQPGGSLRLSCAASGFTVSSNYMSWVRQAPGKGLEWVSVIYSGGSTYYADSVKGRFTISRDNSKNTLYLQMNSLRAEDTAVYYCARDLGTGLFDYWGQGTLVTVSS
VL: DIQLTQSPSFLSASVGDRVTITCRASQGISSYLAWYQQKPGKAPKLLIYAASTLQSGVPSRFSGSGSGTEFTLTISSLQPEDFATYYCQQLDSYPPGTFGPGTKVDIK
For B1, the equilibrium dissociation constant (Kd) (commonly the concentration at which binding is half-saturated) in experiment [1] was 362 ± 18 nM.

B2: CC12.3 Fab, Y58 variant (heavy chain F58Y) (Fab, V domains shown)
VH: B1 VH with E1Q, N76S, A87V, L99F, T101D, G102F, L103Y
VL: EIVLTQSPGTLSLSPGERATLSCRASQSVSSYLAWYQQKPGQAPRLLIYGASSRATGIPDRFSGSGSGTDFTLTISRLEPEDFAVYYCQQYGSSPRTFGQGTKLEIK
notes: also called CC12.3 Y58
Molecule B2 showed a dissociation constant (Kd) in experiment [2] of 97 nM.

B3: CC12.3 F58Y Fab (Fab, V domains shown)
VH: B1 VH with E1Q, N76S, A87V, L99F, T101D, G102F, L103Y
VL: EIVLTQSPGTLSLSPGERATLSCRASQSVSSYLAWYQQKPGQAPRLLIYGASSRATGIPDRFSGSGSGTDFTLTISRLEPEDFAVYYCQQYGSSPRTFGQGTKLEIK
B3: the dissociation constant Kd in experiment [1] is 97 ± 2 nM.

B4: COVA2-20 Y58F Fab (Fab, V domains shown)
VH: EVQLVESGGGLIQPGGSLRLSCAASGFTVSSNYMSWVRQAPGKGLEWVSVIYSGGSTFYADSVKGRFTISRDNSKNTLYLQMNSLRAEDTAVYYCASPLLLTPPDYYYYMDVWGKGTMVTVSS
VL: DVVMTQSPSSLSVSVGDRVTITCRASQGIRNDLGWYQQKPGKAPKRLIYAASSLQSGVPSRFSGSGSGTEFTLTISSLQPEDFATYYCLQHNSYLWTFGQGTKLEIK
Molecule B4 had a dissociation constant Kd in experiment [1] of 286 ± 17 nM.

B5: COVA2-20 Fab, F58 variant (heavy chain Y58F) (Fab, V domains shown)
VH: B4 VH
VL: B4 VL
notes: also called COVA2-20 F58
In turn, B5 showed a Kd in experiment [2] of 286 nM.

These data come from PMC8217500, “Sequence signatures of two public antibody clonotypes that bind SARS-CoV-2 receptor binding domain” (Nature Communications, 2021).
